Results on 9 molecules are retold here after patent publication US20240116985A1 (published 2024).

Starred links: 1 amine or outer side, 2 acyl side, 3 side chain; linkers in the order of their positions; H or OH if unused. Positions of bridges follow the written chain, without caps; N, C: chain ends. Non-standard residues stand in square brackets, D forms with d. Primed or numbered codes have the meaning given here. PyrS2(3) = (S)-3-amino-1-((pent-4-en-1-yloxy)carbonyl)pyrrolidine-3-carboxylic acid, stapling residue, C=CCCCOC(=O)N1CC[C@@](N[*:1])(C(=O)[*:2])C1; PyrS2″ = (S)-3-amino-1-((pent-4-en-1-yloxy)carbonyl)pyrrolidine-3-carboxylic acid (stapling residue), C=CCCCOC(=O)N1CC[C@@](N[*:1])(C(=O)[*:2])C1; TfeGA = (S)-2-amino-3-((carboxymethyl)(2,2,2-trifluoroethyl)amino)propanoic acid, O=C([C@H](CN(CC(=O)[*:3])CC(F)(F)F)N[*:1])[*:2]; MePpzAsn = (S)-2-amino-4-(4-methylpiperazin-1-yl)-4-oxobutanoic acid, CN1CCN(C(=O)C[C@H](N[*:1])C(=O)[*:2])CC1; B5(3) = 2,2-bis(4-pentenyl)glycine (stitching residue), C=CCCCC(CCCC=C)(N[*:1])C(=O)[*:2]; B5″ = 2,2-bis(4-pentenyl)glycine, stitching residue, C=CCCCC(CCCC=C)(N[*:1])C(=O)[*:2]; B5 = 2-amino-2-(pent-4-en-1-yl)hept-6-enoic acid, C=CCCCC(CCCC=C)(N[*:1])C(=O)[*:2]; Phe(2-CN) = N#Cc1ccccc1C[C@H](N)C(=O)O; Phe(2-Cl) = N[C@@H](Cc1ccccc1Cl)C(=O)O; Bta = N[C@@H](Cc1csc2ccccc12)C(=O)O; αAllylPro = C=CC[C@@]1(C(=O)O)CCCN1; tBuAla = CC(C)(C)C[C@H](N)C(=O)O; 3Thi = N[C@@H](Cc1ccsc1)C(=O)O; S8 = C=CCCCCCC[C@](C)(N)C(=O)O; R5 = C=CCCC[C@@](C)(N)C(=O)O

The target of assay [1] is T1, full-length beta-Catenin (Uniprot ID P35222) (Homo sapiens (Human), UniProt P35222 1-781).
T1 construct: The assay text says full-length; also called bCat; B-Catenin
T1 sequence: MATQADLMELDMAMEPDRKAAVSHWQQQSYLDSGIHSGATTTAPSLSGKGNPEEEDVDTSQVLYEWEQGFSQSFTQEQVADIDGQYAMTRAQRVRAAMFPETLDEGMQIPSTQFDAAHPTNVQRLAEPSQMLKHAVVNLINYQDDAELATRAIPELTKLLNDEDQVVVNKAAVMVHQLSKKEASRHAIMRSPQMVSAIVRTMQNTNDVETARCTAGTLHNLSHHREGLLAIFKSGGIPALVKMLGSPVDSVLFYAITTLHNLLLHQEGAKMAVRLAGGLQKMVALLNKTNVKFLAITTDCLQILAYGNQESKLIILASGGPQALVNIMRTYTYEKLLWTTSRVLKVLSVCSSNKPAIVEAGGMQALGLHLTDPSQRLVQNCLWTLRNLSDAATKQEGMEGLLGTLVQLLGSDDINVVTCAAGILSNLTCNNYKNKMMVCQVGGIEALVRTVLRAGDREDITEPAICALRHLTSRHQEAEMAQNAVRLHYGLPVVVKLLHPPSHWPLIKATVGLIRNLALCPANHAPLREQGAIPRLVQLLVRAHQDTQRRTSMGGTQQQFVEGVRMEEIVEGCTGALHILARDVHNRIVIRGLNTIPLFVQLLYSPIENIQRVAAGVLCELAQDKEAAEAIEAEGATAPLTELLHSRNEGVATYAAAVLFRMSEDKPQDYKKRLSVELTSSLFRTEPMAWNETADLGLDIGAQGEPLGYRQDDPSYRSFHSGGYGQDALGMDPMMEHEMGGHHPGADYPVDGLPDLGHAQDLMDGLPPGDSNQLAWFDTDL
Kind of assay: fluorescence polarization competition; full-length beta-catenin with 5FAM-TCF4(10-53) probe as competitor. An outline of the steps: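 Data fitted to 1:1 binding model with hill slope from duplicate reads taken after 60 minutes at 20° C. in the dark.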
In general terms: Fluorescence polarisation rises when a labelled molecule tumbles more slowly, as on binding a larger partner.

In assay [2] the target is T2, B-cat-Halo (UniProt P35222 1-781).
T2 sequence (looked up): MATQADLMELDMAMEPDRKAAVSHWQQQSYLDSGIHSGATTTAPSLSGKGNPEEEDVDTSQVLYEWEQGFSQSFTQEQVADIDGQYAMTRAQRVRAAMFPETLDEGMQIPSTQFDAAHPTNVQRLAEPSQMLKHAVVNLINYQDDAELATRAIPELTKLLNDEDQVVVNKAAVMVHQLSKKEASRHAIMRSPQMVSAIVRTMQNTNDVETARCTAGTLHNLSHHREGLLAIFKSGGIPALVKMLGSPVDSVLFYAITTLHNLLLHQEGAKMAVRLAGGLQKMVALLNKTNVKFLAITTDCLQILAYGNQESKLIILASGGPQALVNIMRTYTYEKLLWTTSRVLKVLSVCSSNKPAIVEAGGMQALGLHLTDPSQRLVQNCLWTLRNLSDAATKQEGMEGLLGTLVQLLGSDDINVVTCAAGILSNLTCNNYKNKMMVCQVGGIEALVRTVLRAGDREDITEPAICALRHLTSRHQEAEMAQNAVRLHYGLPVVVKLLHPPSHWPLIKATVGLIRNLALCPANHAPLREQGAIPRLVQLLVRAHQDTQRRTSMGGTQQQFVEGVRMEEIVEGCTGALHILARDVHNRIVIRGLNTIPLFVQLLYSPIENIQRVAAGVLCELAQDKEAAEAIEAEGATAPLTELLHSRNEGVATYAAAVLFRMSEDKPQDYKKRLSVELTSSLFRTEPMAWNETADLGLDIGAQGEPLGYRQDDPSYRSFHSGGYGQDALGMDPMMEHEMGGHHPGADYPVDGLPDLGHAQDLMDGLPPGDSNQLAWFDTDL
Kind of assay: cell-based or functional assay.

Assay [3] has as its target T3, B-cat-Halo (beta-catenin HaloTag construct expressed in HEK293 cells) (UniProt P35222 1-781).
T3 sequence (looked up): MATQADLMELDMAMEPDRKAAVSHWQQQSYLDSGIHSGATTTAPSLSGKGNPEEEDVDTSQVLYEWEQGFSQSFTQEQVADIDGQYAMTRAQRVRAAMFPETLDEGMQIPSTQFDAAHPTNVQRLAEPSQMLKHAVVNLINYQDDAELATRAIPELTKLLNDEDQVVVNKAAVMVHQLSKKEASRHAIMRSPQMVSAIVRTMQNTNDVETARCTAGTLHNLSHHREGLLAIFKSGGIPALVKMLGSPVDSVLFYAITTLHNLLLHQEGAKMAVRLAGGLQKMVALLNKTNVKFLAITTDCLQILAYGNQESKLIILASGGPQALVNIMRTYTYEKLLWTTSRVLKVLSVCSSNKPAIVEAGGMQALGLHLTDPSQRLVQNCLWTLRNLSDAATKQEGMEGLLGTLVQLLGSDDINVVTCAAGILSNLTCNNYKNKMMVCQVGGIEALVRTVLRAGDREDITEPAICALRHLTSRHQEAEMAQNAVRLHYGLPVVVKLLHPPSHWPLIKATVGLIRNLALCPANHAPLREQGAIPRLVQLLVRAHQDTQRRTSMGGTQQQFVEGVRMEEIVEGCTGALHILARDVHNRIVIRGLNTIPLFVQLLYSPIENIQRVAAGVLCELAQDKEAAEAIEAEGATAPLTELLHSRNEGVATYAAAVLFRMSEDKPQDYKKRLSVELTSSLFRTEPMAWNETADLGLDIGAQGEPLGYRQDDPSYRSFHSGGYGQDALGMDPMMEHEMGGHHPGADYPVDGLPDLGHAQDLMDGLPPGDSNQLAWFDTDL
Kind of assay: cell-based or functional assay.

Assay [4] addresses T4, full-length beta-Catenin (Uniprot ID P35222) (Homo sapiens (Human), UniProt P35222 1-781).
T4 construct: also called bCat; B-Catenin
T4 sequence: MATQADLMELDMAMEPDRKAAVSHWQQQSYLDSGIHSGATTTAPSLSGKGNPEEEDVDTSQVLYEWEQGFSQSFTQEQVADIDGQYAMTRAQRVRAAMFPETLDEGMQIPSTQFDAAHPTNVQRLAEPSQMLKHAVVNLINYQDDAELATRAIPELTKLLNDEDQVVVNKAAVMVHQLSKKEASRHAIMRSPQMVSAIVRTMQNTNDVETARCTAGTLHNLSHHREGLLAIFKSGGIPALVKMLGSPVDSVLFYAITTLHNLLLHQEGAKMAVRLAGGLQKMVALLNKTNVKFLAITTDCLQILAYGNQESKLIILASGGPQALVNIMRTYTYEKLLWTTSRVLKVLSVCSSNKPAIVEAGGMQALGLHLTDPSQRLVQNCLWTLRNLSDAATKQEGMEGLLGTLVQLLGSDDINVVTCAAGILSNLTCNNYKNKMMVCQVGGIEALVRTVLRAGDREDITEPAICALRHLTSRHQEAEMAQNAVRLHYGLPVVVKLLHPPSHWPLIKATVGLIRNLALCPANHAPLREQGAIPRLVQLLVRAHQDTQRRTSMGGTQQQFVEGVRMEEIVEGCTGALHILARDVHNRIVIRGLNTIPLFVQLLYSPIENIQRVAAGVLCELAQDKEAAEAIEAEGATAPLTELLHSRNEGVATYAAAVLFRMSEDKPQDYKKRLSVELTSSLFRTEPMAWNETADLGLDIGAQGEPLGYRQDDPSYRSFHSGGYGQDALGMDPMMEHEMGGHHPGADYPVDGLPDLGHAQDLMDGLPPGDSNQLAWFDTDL
The assay is described as follows: FP competition: full-length beta-catenin 10 nM + 5FAM-TCF4(10-53) 10 nM. How it is done: The plate was incubated protected from light for 60 minutes at 20° C. prior to read. Reads were performed on a CLARIOstar plate reader (BMG Labtech) in duplicate, and data were fitted to a 1:1 binding model with hill slope using an in-house script. All provided concentrations are final concentrations.

B1: I-601 (peptide)
peptide: XDIXDEAAFQXFXQ
modifications: N-terminal Bnc cap; PL3 (pos 1), B5 (pos 4), S8 (pos 11) stapled (PL3-B5 and B5-S8, olefin metathesis); BztA (pos 13); C-terminal NH2
notes: Stapled peptide; also called Bnc-PL3-Asp-Ile-B5-Asp-Glu-Ala-Ala-Phe-Gln-S8-Phe-BztA-Gln-NH2
For B1, the half-inhibitory concentration (IC50) (usually the point on the concentration scale where inhibition reaches its midpoint) in assay [1] worked out at 419 nM.

B2: I-614 (peptide)
peptide: XDIXDRAAFQXFXQ
modifications: not fully specified; N-terminal Ac; PL3 (pos 1), B5 (pos 4), S8 (pos 11) stapled (PL3-B5 and B5-S8); BztA (pos 13); C-terminal NH2
notes: Stapled peptide; also called Ac-PL3-Asp-Ile-B5-Asp-Arg-Ala-Ala-Phe-Gln-S8-Phe-BztA-Gln-NH2
Molecule B2 registered a 50% inhibitory concentration (IC50) in assay [1] of 1140 nM.

B3: I-613 (peptide)
peptide: XDIXDRAAFQXFXQ
modifications: not fully specified; N-terminal Ac; PL3 (pos 1), B5 (pos 4), S8 (pos 11) stapled (PL3-B5 and B5-S8); BztA (pos 13); C-terminal NH2
notes: as for B2
B3 yielded an IC50 in assay [1] of 1630 nM.

B4: I-603 (peptide)
peptide: Ac-[αAllylPro]DI[B5]DQAAFQ[S8]F[Bta]Q-NH2
modifications: staple 1-4, 4-11
notes: Stapled peptide; also called Ac-PL3-Asp-Ile-B5-Asp-Gln-Ala-Ala-Phe-Gln-S8-Phe-BztA-Gln-NH2
Regarding B4, the IC50 in assay [1] was 392 nM.

Turning to Ac-[αAllylPro]D[tBuAla][B5(3)]D[TfeGA]AAFT[PyrS2″][Phe(2-Cl)][Bta][MePpzAsn]-NH2 (staple 1-4, 4-11) [I-1611], the “NanoBRET Abs IC50” value in assay [2] was 9800 nM.

Ac-[αAllylPro]D[tBuAla][B5″]DDAA[Phe(2-CN)]L[PyrS2(3)][3Thi][Bta]Q-NH2 (staple 1-4, 4-11) [I-1200]: the “NanoBRET Abs IC50” value in assay [3] is more than 20000 nM.

Ac-PD[tBuAla][R5]DDAAFL[PyrS2(3)][3Thi][Bta]Q-NH2 (staple 4-11) [I-1181]: the “NanoBRET Abs IC50” value in assay [3] was more than 20000 nM.

B5: I-507 (peptide)
peptide: XDAXDEAAFQXFXT
modifications: not fully specified; Ac-PL3-Asp-Ala-B5-Asp-Glu-Ala-Ala-Phe-Gln-S8-Phe-BztA-Thr-NH2; stapled by olefin metathesis (PL3-B5 and B5-S8)
Regarding B5, in assay [4], the IC50 stood at 192 nM.

B6: I-528 (peptide)
peptide: XDIXDEAAFQXFXQ
modifications: not fully specified; Ac-PL3-Asp-Ile-B5-Asp-Glu-Ala-Ala-Phe-Gln-S8-2OMeF-BztA-Gln-NH2; stapled by olefin metathesis (PL3-B5 and B5-S8)
For B6, the IC50 in assay [4] stood at 63 nM.
